Test system: K4 kissing-loop RNA reporter
Assay: apparent KD of K4 kissing-loop reporter; higher = weaker reporter binding
Settings: Eterna round: R107
Protocol: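 RNA-MaP round R107: designed RNA switches with theophylline, tryptophan, arginine or FMN aptamers are transcribed on-chip within common flanks. They are titrated with a labelled K4 kissing-loop RNA reporter in RNA-MaP buffer (100 mM Tris pH 7.5, 80 mM KCl, 4 mM MgCl2), without ligand or with the indicated ligand. Median apparent KD per design.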

[1] = input ligand: theophylline 20 uM
[2] = input ligand: tryptophan 2.4 mM
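Further: bound reporter read as fluorescence of individual clusters on recovered sequencing chips by microscopy, with normalized cluster intensities fitted with a binding model.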

Sequence	apparent KD of K4 kissing-loop reporter (input ligand: FMN 200 uM) [nM]	apparent KD of K4 kissing-loop reporter (input ligand: arginine 13.2 mM) [nM]	apparent KD of K4 kissing-loop reporter (input ligand: none) [nM]	apparent KD of K4 kissing-loop reporter [1] [nM]	apparent KD of K4 kissing-loop reporter [2] [nM]
UGACUACAUAAGGAAUAAUCCUAGUGAUGUUAGGAUAUGCUGAUAAGCAGAAGGAACGGAGAUCGAAGGAUCUCAUAUGUAGUCU [whbob_Ex_FMNA__2th194]	275	101	103	121	103
UGACUGGACUGAAGGAGCGCAAAACUCCUAGUGAUGUUAGGAAAACGAGACAAAGUCUCGAUGCAGGUAGGUCGCAGUCUAGUCU	209	146	185	194	182
UGACUGGAUGGAAGGAGCGCUAAACUCCUAGUGAUGUUAGGGAUACGAGACAAAGUCUUGAAGCAGGUAGGUCGCCAUCUAGUCU [FiskerMod 10 - Jieux - Same State - Arginine B]	170	124	144	144	138
UGAGAUAUGAGGGAUACCAGCCAUAAGGAAAGUGUGAUGAGUGAUGUUCUGACAAGCCAAGGCCCUUGGCAGCUUUAAUAGCAUC [whbob_SS_Theo_B_th77]	328	191	280	167	267
UGAUACCAGACGGCCGCCACUCCCGUAAGUCAAAGACUUACGAAGAGAAUCGUCCAGUGAUGUUGGAGGACCGGGUCUGGUAUCU [FiskerMod 11 - Jieux - Exclusion - Tryptophan B]	680	664	818	600	785
UGAUACCAGACGGCCGCCACUCCCGUAAGUCAAAGACUUACGAAGAGAGUCGUCCAGUGAUGUUGGAGGACCGGGUCUGGUAUCU [FiskerMod 12 - Jieux - Exclusion - Tryptophan B]	179	143	163	138	294
UGAUACCAGACGGCCGCCACUCCUAGUGAUGUUAGGAACCUAAAAUAGCAUGUCAAAGACAUGCGGAGGACCGGGUCUGGUAUCU [TrypBX 23 #SwitchBubble #Palindromic #StaticStem]	111	92.1	104	90.3	254
UGAUACCAGACGGCCGCCACUCCUGCAGUCAAAGACUGCAAAGGAAUAUUCGUCCAGUGAUGUUGGAGGACCGGGUCUGGUAUCU [TrypBX 11 #SwitchBubble #Palindromic #StaticStem]	974	698	1210	701	844
UGAUACCAGACGGCCGCCACUGCACCAGUCAAUGACUGAGUGUAGUAAUGCUCAGUGAUGUUGAGUAGGACCGGGUCUGGUAUCU [Mod of Eli's TrypBX 8 v1]	141	122	128	122	130
UGAUACCAGACGGCCGCCACUUCCGCAAGUCAAAGACUUGCCAAGGGAAUCGUCCAGUGAUGUUGGAGGACCGGGUCUGGUAUCU [FiskerMod 4 - Jieux - Exclusion - Tryptophan B]	939	516	1220	525	587
UGAUACCAGACUGAUACCAGCCACAGAGUCAAGACUCUGAUAAAGGUAACCAGUGAUGUUGGCCCUUGGCAGCAGUCUGGUAUCU [TheoBX 16 #SwitchBubble #StaticStem]	193	164	166	149	156
UGAUAGGACAGAAGGAGCGGGAGUGAUGUUCCCAAAAUGGAAGGUCGACAAAGUCGACCCUCCCAGGUAGGUCGCUGUCCUAUCU [ArgBX 6 #SwitchBubble #StaticStem]	91.3	101	99.6	99.2	86.7
UGAUAGGACAGAAGGAGCGGGAGUGAUGUUCCCAAGGAUUGGUCUAGCAAAGCUGGACCCUCCCAGGUAGGUCGCUGUCCUAUCU [ArgBX 5 #SwitchBubble #StaticStem]	195	223	222	182	191
UGAUAGGACAGAAGGAGCGGUAGUGAUGUUGCCAAAAGUAUAAGGUGUCAAAAGACACCCUGCCAGGUAGGUCGCUGUCCUAUCU	134	228	187	190	137
UGAUCUCAGUGAUGUUGAGAUCAAACUGAUACCAGUCAAUUUAGUGACCCUUGGCAGCAGUAUACCAAGGGAUCUUAUGAGAUCA [Theo A SS t5]	173	152	165	162	154

From the supplement of paper PMC9170038
